Target: MITF N310S (DNA-binding fragment) (UniProt Q95MD1 112-207, N149S)
Assay: EMSA; 5 mM MgCl2; 2.0 uM protein end point; reduced by about 80%; 20 mM Tris, 50 mM NaCl, 5 mM MgCl2, 1 mM DTT, 33 ug/ml BSA, pH 7.4, on ice 30 min; 6% native PAGE in 0.5x TBE
Conditions: protein: recombinant; (Ni-NTA purified); chain copies: 2; label: radioactive label

MITF N310S (DNA-binding fragment), sequence (Q95MD1 entry or part of it N149S | N310S N310S): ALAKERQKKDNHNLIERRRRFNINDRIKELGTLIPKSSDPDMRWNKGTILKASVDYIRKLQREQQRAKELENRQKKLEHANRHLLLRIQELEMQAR

B1: M-box oligonucleotide (dsDNA)
DNA 1: GGAAAGTTAGTCATGTGCTTTTCAGAAGA
DNA 2: TCTTCTGAAAAGCACATGACTAACTTTCC
  binding signal: ~20 % of wild-type binding
